Assay results from patent publication CN109485724A (FUZHOU MAIXIN BIOTECHNOLOGY DEV CO LTD, dated 2019).

Biological target: T1, 重组Desmin蛋白 (人Desmin α螺旋杆状区第109位至第412位氨基酸片段 + 组氨酸标签, 大肠杆菌表达) (human, UniProt P17661 109-412)
T1 construct: range 109-412; Expressed in E. coli Rosetta from pET-28a(+) (EcoRI/HindIII), solubilised from inclusion bodies in 8 M urea and purified on Ni-NTA; also called 重组Desmin蛋白片段; 免疫原; not shown: histidine tag from vector pET28a(+)
Assay: indirect ELISA on coated recombinant Desmin; affinity constant calculated from the antibody concentration at half of the plateau OD450

T1 sequence (P17661 109-412): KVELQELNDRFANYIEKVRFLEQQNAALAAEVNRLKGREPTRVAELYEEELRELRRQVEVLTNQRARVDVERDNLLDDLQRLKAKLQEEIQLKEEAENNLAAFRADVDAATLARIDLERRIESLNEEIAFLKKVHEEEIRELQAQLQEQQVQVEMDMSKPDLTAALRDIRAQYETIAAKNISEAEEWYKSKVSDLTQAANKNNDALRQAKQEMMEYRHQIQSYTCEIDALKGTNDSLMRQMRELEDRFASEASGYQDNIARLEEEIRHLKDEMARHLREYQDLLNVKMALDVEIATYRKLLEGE

B1: 抗Desmin蛋白单克隆抗体(14G1C12) (antibody, V domains shown)
VH: QIQLVQSGPELKKPGETVKISCKASGYTFTNYGMNWVKQAPGKGLKWMGWINTNTGEPTYAEEFKGRFAFSLETSASTAYLQINNLKNEDTATYFCAREFSSWGQGTLVTVSA
VL: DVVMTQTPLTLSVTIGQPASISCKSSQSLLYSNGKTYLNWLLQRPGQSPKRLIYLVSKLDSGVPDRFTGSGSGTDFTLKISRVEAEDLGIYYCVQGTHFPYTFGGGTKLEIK
notes: also called Desmin单克隆抗体; 14G1C12的Desmin
Q: With B1 as the binder, how does the Ka read?
A: The Ka was 6.82e+09 M⁻¹.
